Experimental findings from US9518995B2, “FKBP52-Tau interaction as a novel therapeutical target for treating the neurological disorders involving Tau dysfunction” (Institut National de la Sante et de la Recherche Medicale …, priority 2009, dated 2016) are described below.

In assay [1] the test system is H7C2 cells. Put plainly: FKBP52 induction in H7C2 cells (Western blot). Type of assay: cell-based, rat. The note with it: after 5 days of Dox treatment. The method, then: Generation of H7C2 cells: The cDNA encoding rabbit FKBP52 was inserted into the HindIII and AccI restriction sites of the pTRE2 vector (Clontech) in order to give pTRE2-FKBP52. Transfection of 100 μg of pTR2-FKBP52 and 10 μg of pTK-hygromicin was carried out in a commercially available PC12 Tet-on cell line (Clontech) that expresses the reverse tetracycline controlled transactivator, using Lipofectamine™ (Invitrogen). Stably transfected cells were selected with 100 μg/ml hygromycin and screened individually. Cell culture: PC12 cells and H7C2 cells were grown in DMEM containing 10% (v/v) horse serum and 5% (v/v) FBS (Invitrogen) at 37° C. in 90% […]/10% CO2. The differentiated neuronal phenotype of cells grown on plastic dishes coated with 10 μg/ml poly(L)-lysine (Sigma), was induced by adding nerve growth factors (NGF) (Invitrogen) for 5 days. Primary cultures from cerebral cortex of embryonic day 17rat foetuses were carried out. Dissociated cells were plated (50,000 cells per ml) on glass coverslips coated with poly(L-ornithine) and cultured in a defined medium in 95% O2/5% CO2 at 37° C.
A general note: In western blotting, separated proteins are transferred to a membrane and probed.

In assay [2] the test system is H7C2 cells. As to the kind of experiment: Quantitation of neurite outgrowth. The note with it: 50 nM NGF and Dox, compared to H7C2 not treated with Dox. It counts as cell-based, rat. The protocol: Cell culture: PC12 cells and H7C2 cells were grown in DMEM containing 10% (v/v) horse serum and 5% (v/v) FBS (Invitrogen) at 37° C. in 90% O2/10% CO2. The differentiated neuronal phenotype of cells grown on plastic dishes coated with 10 μg/ml poly(L)-lysine (Sigma), was induced by adding nerve growth factors (NGF) (Invitrogen) for 5 days. Primary cultures from cerebral cortex of embryonic day 17rat foetuses were carried out. Dissociated cells were plated (50,000 cells per ml) on glass coverslips coated with poly(L-ornithine) and cultured in a defined medium in 95% O2/5% CO2 at 37° C. Quantitation of neurite outgrowth: Random field photographs of PC12 and H7C2 cells, in each of three wells, were analyzed with Neuron J software. The average neurite length was determined by measuring the longest neurites of at least 200 cells randomly selected.

The target in assay [3] is T1, HP-Tau (hyperphosphorylated recombinant hT40) (Homo sapiens, UniProt P10636).
T1 construct: made in house; host or cells: E. coli; then phosphorylated in vitro with adult rat brain cytosol in the presence of okadaic acid
T1 sequence (P10636 1-441 isoform P10636-8): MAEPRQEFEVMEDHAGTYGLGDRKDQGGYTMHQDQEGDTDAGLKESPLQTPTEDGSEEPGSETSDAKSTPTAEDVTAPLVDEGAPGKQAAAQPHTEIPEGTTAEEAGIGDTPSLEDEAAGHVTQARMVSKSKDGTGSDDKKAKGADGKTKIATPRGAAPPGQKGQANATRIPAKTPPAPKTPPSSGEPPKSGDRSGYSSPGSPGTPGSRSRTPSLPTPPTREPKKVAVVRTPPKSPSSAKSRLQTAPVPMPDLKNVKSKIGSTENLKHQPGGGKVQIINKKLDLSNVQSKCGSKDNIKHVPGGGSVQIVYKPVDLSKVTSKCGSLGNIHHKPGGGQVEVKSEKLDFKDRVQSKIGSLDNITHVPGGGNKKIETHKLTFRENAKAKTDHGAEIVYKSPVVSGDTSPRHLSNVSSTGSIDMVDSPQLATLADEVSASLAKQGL
Put plainly: Dot blot assay, FKBP52 captured by spotted HP-Tau. Type of assay: binding. The following applies: 2.2 μg HP-Tau spotted; 0.5 μg FKBP52. The protocol: (§1) Phosphorylation and hyperphosphorylation of recombinant Tau: Rat brain extract was used as the source of kinase activity, as described (18). Briefly, recombinant hT40 was incubated with cytosol of adult rat brain, in the presence or absence of okadaic acid, to give HP-Tau (hyperphosphorylated-Tau) and P-Tau (phosphorylated-Tau), respectively.
(§2) Dot blot assay: 100 μl of buffer A containing different amounts of hT40 were applied to a nitrocellulose membrane, blocked with 5% non-fat milk in phosphate-buffered saline (PBS) containing 0.1% Tween 20 (PBS-T) at room temperature, washed with PBS-T and buffer A, followed by 2 h incubation at room temperature with 100 μl of buffer A containing […] recombinant FKBP52. The membranes were washed with buffer IP (50 mM Tris (pH 7.5)/150 mM NaCl/2 mM MgCl2/0.1% Brij97 (Sigma)/10% glycerol/protease inhibitors) and with PBS-T. After blocking with milk in PBS-T, the membranes were incubated with anti-FKBP52 761 antibody. […] Quantitation was performed with Quantity-one software using Chemidoc XRS fitted with a 16 bit CCD camera (Biorad).

Assay [4] addresses T2, P-Tau (phosphorylated recombinant hT40) (Homo sapiens, UniProt P10636).
T2 construct: made in house; host or cells: E. coli; then phosphorylated in vitro with adult rat brain cytosol without okadaic acid
As to the kind of experiment: Dot blot assay, FKBP52 captured by spotted P-Tau. The note with it: same amount (2.2 μg) P-Tau as bait; 0.5 μg FKBP52. It counts as binding. The protocol:
as §1, §2

The target of the next assay is T3, recombinant Tau (hT40) (Homo sapiens, UniProt P10636).
T3 construct: made in house; host or cells: E. coli
T3 sequence (P10636 1-441 isoform P10636-8): as above
As to the kind of experiment: Dot blot assay, FKBP52 captured by spotted recombinant Tau. Type of assay: binding. The protocol: as §2

For assay [5], the target named is T4, tubulin polymerization induced by recombinant human Tau isoforms (Homo sapiens, UniProt P10636).
T4 construct: made in house; host or cells: Tau: E. coli; tubulin: adult Sprague-Dawley rat brain
T4 sequence (P10636 2-441 isoform P10636-8): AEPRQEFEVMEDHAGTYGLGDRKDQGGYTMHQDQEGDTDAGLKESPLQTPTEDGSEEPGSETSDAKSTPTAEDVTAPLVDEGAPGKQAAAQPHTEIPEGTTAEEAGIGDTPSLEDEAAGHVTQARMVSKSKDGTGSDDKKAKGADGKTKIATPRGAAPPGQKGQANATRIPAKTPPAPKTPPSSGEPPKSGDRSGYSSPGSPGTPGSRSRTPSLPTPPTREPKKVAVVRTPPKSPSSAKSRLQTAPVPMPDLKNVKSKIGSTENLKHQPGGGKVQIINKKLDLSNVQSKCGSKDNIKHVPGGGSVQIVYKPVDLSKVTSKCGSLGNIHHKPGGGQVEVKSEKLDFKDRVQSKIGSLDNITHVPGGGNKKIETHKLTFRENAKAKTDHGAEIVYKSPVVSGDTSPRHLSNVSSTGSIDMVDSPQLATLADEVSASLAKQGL
As to the kind of experiment: Microtubule assembly assay (tubulin polymerization induced by recombinant Tau isoforms). Type of assay: biochemical, rat. The note with it: tubulin 1 mg/ml, 1.7 μM Tau isoforms, 3.5 μM protein, turbidity at 345 nm. The protocol: Preparation of Tubulin and microtubule assembly assay: Male adult Sprague-Dawley rats (body weight ˜250 g) were obtained from Janvier (Le Genest-St.-Isle, France). They were killed by decapitation, according to institutional guidelines, and whole brains were used immediately to prepare tubulin as described (9). Microtubule assembly assays were performed as in (9).
Protein purification and Overexpression of different Tau isoforms and FKBP52 protein: The six isoforms of human brain Tau were expressed in E. coli from clones hT40, hT39, hT37, hT34, hT24, hT23 and purified as described (28). Full length FKBP52 was affinity purified as in (23). For the Tubulin polymerization assay, FKBP52 bound to glutathione-Sepharose beads (GE Healthcare) were cleaved overnight at 4° C. with 2 units of thrombin (GE Healthcare) and dialyzed against buffer L (0.1 M Mes, 1 mM EGTA, 1 mM MgCL2, 0.1 mM EDTA) with 10% glycerol, and complemented before use to 1 mM GTP and 1 mM DTT and 10 μM PPACK (a potent irreversible inhibitor of thrombin) (Biomol).

In assay [6] the target is T5, recombinant Tau protein (longest isoform) (Homo sapiens, UniProt P10636).
T5 construct: made in house
T5 sequence (P10636 1-441 isoform P10636-8): as the sequence (P10636 1-441 isoform P10636-8) above
As to the kind of experiment: Sedimentation assay of Tau polymerization in oxidative conditions. It counts as biochemical. The following applies: Tau 0.5 mg/ml. The protocol:
To investigate the effect of FKBP52 on Tau oligomerization we monitored by sedimentation assay the ability of recombinant Tau protein (here using the longest isoform) to polymerise in oxidative conditions in presence or absence of recombinant FKBP52. After dialysis of Tau (0.5 mg/ml) overnight at 4° C. in Tris 10 mM pH7.4 and centrifugation at 14000 rpm, quantitative western blotting was used to monitor the polymerization of Tau protein. […] This experiment means that Tau in oxidative conditions self polymerise and confirms, as already reported, the importance of cysteines in first step of Tau oligomerization process (Schweers et al 1995).

T2 sequence (P10636 1-441 isoform P10636-8): as above

As for `C[C@H]1c2cccc(O)c2C(=O)C2=C(O)[C@]3(O)C(=O)C(C(N)=O)=C(O)[C@@H](N(C)C)[C@@H]3[C@@H](O)[C@@H]21` [Dox, doxycycline], the FKBP52 induction entry in the assay with H7C2 cells [1] is given as “about 4 fold”. Moreover, in the assay with H7C2 cells [2], the “decrease in neurite length” value is reported as 40%.

B1: FKBP52: purified recombinant full length immunophilin FKBP52 (FK506-Binding Protein), cleaved from GST with thrombin (protein, UniProt Q02790 1-459, looked up)
chain: MTAEEMKATESGAQSAPLPMEGVDISPKQDEGVLKVIKREGTGTEMPMIGDRVFVHYTGWLLDGTKFDSSLDRKDKFSFDLGKGEVIKAWDIAIATMKVGEVCHITCKPEYAYGSAGSPPKIPPNATLVFEVELFEFKGEDLTEEEDGGIIRRIQTRGEGYAKPNEGAIVEVALEGYYKDKLFDQRELRFEIGEGENLDLPYGLERAIQRMEKGEHSIVYLKPSYAFGSVGKEKFQIPPNAELKYELHLKSFEKAKESWEMNSEEKLEQSTIVKERGTVYFKEGKYKQALLQYKKIVSWLEYESSFSNEEAQKAQALRLASHLNLAMCHLKLQAFSAAIESCNKALELDSNNEKGLFRRGEAHLAVNDFELARADFQKVLQLYPNNKAAKTQLAVCQQRIRRQLAREKKLYANMFERLAEEENKAKAEASSGDHPTDTEMKEEQKSNTAGSQSQVETEA
modifications: full-length
Consider B1, for which the “FKBP52 retained by HP-Tau” value in assay [3] worked out at 73%. Further, the “FKBP52 captured by P-Tau” value in assay [4] amounted to 41%. In addition, in the assay with recombinant Tau (hT40) (2.2 μg hT40 with cytosol added just prior to spotting), the “FKBP52 retained by hT40 in the presence of cytosolic proteins” value is given as 6.6%. In addition, in the assay with recombinant Tau (hT40) (2.2 μg non phosphorylated hT40), the “FKBP52 retained by hT40” value was determined as 3.5%. In addition, in the assay with recombinant Tau (hT40) (different amounts of hT40 spotted, GST spot as control), the “retention by spotted Tau” value was “retained in a dose dependent manner”. Besides, in assay [5], the “effect on microtubule formation induced by Tau” value is “formation of microtubules was prevented”. Also, the “Tau polymers in pellet” value in assay [6] (FKBP52 at 0.1 or 0.25 mg/ml) is reported as “increasing Tau polymers in pellet”; in assay [6] (equimolecular or two times quantities of FKBP52 versus Tau), “prevent the presence of pelletable polymers of Tau”. For the same molecule, the “Tau in pellet fraction” value in assay [6] (oxidative medium, equimolecular coincubation) was “no detectable presence of Tau in pellet fraction”.
